Results reported in the supplement of paper PMC9112550, “Optimization of the antimicrobial peptide Bac7 by deep mutational scanning” (BMC Biology, 2022).

Test system: Escherichia coli TOP10
Assay: shrunken log2 fold change of peptide-encoding DNA abundance (4.5 h post-induction vs induction); higher = less antimicrobial activity (less host growth inhibition)
Details: time post-induction: 4.5 h; library: site-saturation at positions 5, 18, 19, 20
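Note: peptides expressed intracellularly from a pBAD plasmid library in pooled LB shake-flask culture, induced with 0.3% L-arabinose, DNA abundance read by NGS, three biological replicates, DESeq2 with apeglm shrinkage.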

Sequence	shrunken log2 fold change
RRIRQRPPRLPRPRPRPRWMPRP	0.0157
RRIRQRPPRLPRPRPRPRYNPRP	-0.527
RRIRQRPPRLPRPRPRPSASPRP	0.0788
RRIRQRPPRLPRPRPRPSCWPRP	0.188
RRIRQRPPRLPRPRPRPSDRPRP	-0.264
RRIRQRPPRLPRPRPRPSEGPRP	0.0871
RRIRQRPPRLPRPRPRPSHAPRP	-0.107
RRIRQRPPRLPRPRPRPSHIPRP	-0.0881
RRIRQRPPRLPRPRPRPSKNPRP	0.0658
RRIRQRPPRLPRPRPRPSMTPRP	-0.285
RRIRQRPPRLPRPRPRPSNEPRP	-0.5
RRIRQRPPRLPRPRPRPSNHPRP	-0.346
RRIRQRPPRLPRPRPRPSPCPRP	-0.0648
RRIRQRPPRLPRPRPRPSPTPRP	0.292
RRIRQRPPRLPRPRPRPSPYPRP	-0.187
RRIRQRPPRLPRPRPRPSRHPRP	-0.0666
RRIRQRPPRLPRPRPRPSRMPRP	-0.34
RRIRQRPPRLPRPRPRPSRQPRP	-0.101
RRIRQRPPRLPRPRPRPSSMPRP	-0.201
RRIRQRPPRLPRPRPRPSTAPRP	0.0789
RRIRQRPPRLPRPRPRPSVNPRP	-0.642
RRIRQRPPRLPRPRPRPSWLPRP	-0.213
RRIRQRPPRLPRPRPRPSWPPRP	-0.0496
RRIRQRPPRLPRPRPRPSYQPRP	-0.635
RRIRQRPPRLPRPRPRPTAEPRP	0.363

Sequence	shrunken log2 fold change
RRIRQRPPRLPRPRPRPTANPRP	0.197
RRIRQRPPRLPRPRPRPTAPPRP	0.0785
RRIRQRPPRLPRPRPRPTCTPRP	-0.0329
RRIRQRPPRLPRPRPRPTCVPRP	-0.442
RRIRQRPPRLPRPRPRPTDKPRP	-0.112
RRIRQRPPRLPRPRPRPTFAPRP	0.209
RRIRQRPPRLPRPRPRPTGIPRP	-0.177
RRIRQRPPRLPRPRPRPTGSPRP	-0.0708
RRIRQRPPRLPRPRPRPTKCPRP	0.0325
RRIRQRPPRLPRPRPRPTLSPRP	0.322
RRIRQRPPRLPRPRPRPTMLPRP	-0.339
RRIRQRPPRLPRPRPRPTMMPRP	-0.194
RRIRQRPPRLPRPRPRPTMTPRP	-0.0845
RRIRQRPPRLPRPRPRPTPRPRP	0.843
RRIRQRPPRLPRPRPRPTREPRP	-0.081
RRIRQRPPRLPRPRPRPTSIPRP	-0.18
RRIRQRPPRLPRPRPRPTTDPRP	-0.0492
RRIRQRPPRLPRPRPRPTTFPRP	-0.485
RRIRQRPPRLPRPRPRPTTKPRP	-0.122
RRIRQRPPRLPRPRPRPTTMPRP	-0.11
RRIRQRPPRLPRPRPRPTTTPRP	-0.126
RRIRQRPPRLPRPRPRPTTVPRP	-0.114
RRIRQRPPRLPRPRPRPTWGPRP	0.168
RRIRQRPPRLPRPRPRPTYDPRP	-0.338
RRIRQRPPRLPRPRPRPVCNPRP	-0.0714

Sequence	shrunken log2 fold change
RRIRQRPPRLPRPRPRPVCPPRP	-0.0461
RRIRQRPPRLPRPRPRPVEVPRP	-0.0922
RRIRQRPPRLPRPRPRPVEWPRP	0.0152
RRIRQRPPRLPRPRPRPVGPPRP	0.231
RRIRQRPPRLPRPRPRPVKWPRP	0.746
RRIRQRPPRLPRPRPRPVLDPRP	0.0663
RRIRQRPPRLPRPRPRPVLSPRP	-0.0147
RRIRQRPPRLPRPRPRPVMLPRP	-0.124
RRIRQRPPRLPRPRPRPVPQPRP	0.0925
RRIRQRPPRLPRPRPRPVTRPRP	0.0193
RRIRQRPPRLPRPRPRPVTWPRP	-0.073
RRIRQRPPRLPRPRPRPVVMPRP	0.0928
RRIRQRPPRLPRPRPRPVVQPRP	-0.0933
RRIRQRPPRLPRPRPRPVWLPRP	0.2
RRIRQRPPRLPRPRPRPVYEPRP	-0.0143
RRIRQRPPRLPRPRPRPVYHPRP	-0.83
RRIRQRPPRLPRPRPRPVYVPRP	-0.216
RRIRQRPPRLPRPRPRPWAFPRP	-0.000467
RRIRQRPPRLPRPRPRPWAPPRP	0.0985
RRIRQRPPRLPRPRPRPWCHPRP	-0.169
RRIRQRPPRLPRPRPRPWCWPRP	0.304
RRIRQRPPRLPRPRPRPWDFPRP	0.2
RRIRQRPPRLPRPRPRPWDSPRP	-0.198
RRIRQRPPRLPRPRPRPWFLPRP	-0.0618
RRIRQRPPRLPRPRPRPWFSPRP	-0.102

Sequence	shrunken log2 fold change
RRIRQRPPRLPRPRPRPWHYPRP	-0.484
RRIRQRPPRLPRPRPRPWIEPRP	-0.0606
RRIRQRPPRLPRPRPRPWIMPRP	-0.141
RRIRQRPPRLPRPRPRPWIPPRP	0.0265
RRIRQRPPRLPRPRPRPWKAPRP	-0.112
RRIRQRPPRLPRPRPRPWKEPRP	-0.103
RRIRQRPPRLPRPRPRPWLGPRP	-0.0417
RRIRQRPPRLPRPRPRPWLMPRP	-0.102
RRIRQRPPRLPRPRPRPWLNPRP	-0.0662
RRIRQRPPRLPRPRPRPWMPPRP	-0.167
RRIRQRPPRLPRPRPRPWNEPRP	-0.139
RRIRQRPPRLPRPRPRPWPPPRP	0.16
RRIRQRPPRLPRPRPRPWPWPRP	0.0839
RRIRQRPPRLPRPRPRPWQAPRP	0.124
RRIRQRPPRLPRPRPRPWQVPRP	-0.154
RRIRQRPPRLPRPRPRPWSPPRP	-0.106
RRIRQRPPRLPRPRPRPWWCPRP	-0.105
RRIRQRPPRLPRPRPRPWYFPRP	-0.289
RRIRQRPPRLPRPRPRPYAAPRP	-0.175
RRIRQRPPRLPRPRPRPYCCPRP	-0.781
RRIRQRPPRLPRPRPRPYCWPRP	-0.554
RRIRQRPPRLPRPRPRPYEMPRP	-0.153
RRIRQRPPRLPRPRPRPYETPRP	-0.427
RRIRQRPPRLPRPRPRPYFGPRP	-0.305
RRIRQRPPRLPRPRPRPYIWPRP	-0.0658

Sequence	shrunken log2 fold change
RRIRQRPPRLPRPRPRPYKSPRP	-0.248
RRIRQRPPRLPRPRPRPYLWPRP	-0.0736
RRIRQRPPRLPRPRPRPYMCPRP	-0.184
RRIRQRPPRLPRPRPRPYMEPRP	-0.26
RRIRQRPPRLPRPRPRPYMSPRP	-0.655
RRIRQRPPRLPRPRPRPYMVPRP	-0.176
RRIRQRPPRLPRPRPRPYNAPRP	-0.0247
RRIRQRPPRLPRPRPRPYNTPRP	-0.325
RRIRQRPPRLPRPRPRPYNWPRP	-0.11
RRIRQRPPRLPRPRPRPYPPPRP	-0.357
RRIRQRPPRLPRPRPRPYPRPRP	-0.258
RRIRQRPPRLPRPRPRPYQQPRP	-0.0082
RRIRQRPPRLPRPRPRPYTHPRP	-0.723
RRIRQRPPRLPRPRPRPYTTPRP	-0.0148
RRIRQRPPRLPRPRPRPYVNPRP	-0.00544
RRIRQRPPRLPRPRPRPYWDPRP	-0.192
RRIRQRPPRLPRPRPRPYYSPRP	-0.39
RRIRQRPPRLPRPRPRPYYTPRP	-0.363
RRIRQRPPRLPRPRPRPYYVPRP	-0.0108
RRIRRRPPRLPRPRPRPACLPRP	0.623
RRIRRRPPRLPRPRPRPADVPRP	0.146
RRIRRRPPRLPRPRPRPAEAPRP	0.148
RRIRRRPPRLPRPRPRPAFNPRP	0.201
RRIRRRPPRLPRPRPRPAGLPRP	0.153
RRIRRRPPRLPRPRPRPAGSPRP	0.384

Sequence	shrunken log2 fold change
RRIRRRPPRLPRPRPRPAHIPRP	0.0825
RRIRRRPPRLPRPRPRPAIDPRP	0.193
RRIRRRPPRLPRPRPRPAIWPRP	0.356
RRIRRRPPRLPRPRPRPAKCPRP	0.0405
RRIRRRPPRLPRPRPRPAKMPRP	0.113
RRIRRRPPRLPRPRPRPALEPRP	0.264
RRIRRRPPRLPRPRPRPALYPRP	0.225
RRIRRRPPRLPRPRPRPAMCPRP	0.319
RRIRRRPPRLPRPRPRPAMEPRP	0.019
RRIRRRPPRLPRPRPRPAMVPRP	0.00501
RRIRRRPPRLPRPRPRPAPHPRP	0.858
RRIRRRPPRLPRPRPRPAQHPRP	0.369
RRIRRRPPRLPRPRPRPAQNPRP	0.398
RRIRRRPPRLPRPRPRPAQRPRP	0.414
RRIRRRPPRLPRPRPRPARVPRP	0.349
RRIRRRPPRLPRPRPRPASFPRP	0.309
RRIRRRPPRLPRPRPRPATCPRP	0.161
RRIRRRPPRLPRPRPRPATLPRP	0.332
RRIRRRPPRLPRPRPRPATQPRP	0.691
RRIRRRPPRLPRPRPRPATWPRP	0.359
RRIRRRPPRLPRPRPRPAVNPRP	0.125
RRIRRRPPRLPRPRPRPAVQPRP	0.0814
RRIRRRPPRLPRPRPRPAWIPRP	0.358
RRIRRRPPRLPRPRPRPAWSPRP	0.321
RRIRRRPPRLPRPRPRPAYCPRP	0.0506
